Measurements as given in paper PMC9408429, “Thermodynamic Swings: How Ideal Complex of Cas9–RNA/DNA Forms”.

Target: Cas9 (UniProt Q99ZW2 1-1368)
Assay: ITC; RNA 62.5 uM into Cas9 5 uM; n = 2.10; triplicate; dH -399.10 kcal/mol; ITC, 20 mM HEPES pH 7.6, 150 mM NaCl, 25 °C, 200 rpm; no Mg2+ listed
Details: protein: recombinant; intramolecular helices; dimer possible

Sequence of Cas9 (Q99ZW2 whole entry): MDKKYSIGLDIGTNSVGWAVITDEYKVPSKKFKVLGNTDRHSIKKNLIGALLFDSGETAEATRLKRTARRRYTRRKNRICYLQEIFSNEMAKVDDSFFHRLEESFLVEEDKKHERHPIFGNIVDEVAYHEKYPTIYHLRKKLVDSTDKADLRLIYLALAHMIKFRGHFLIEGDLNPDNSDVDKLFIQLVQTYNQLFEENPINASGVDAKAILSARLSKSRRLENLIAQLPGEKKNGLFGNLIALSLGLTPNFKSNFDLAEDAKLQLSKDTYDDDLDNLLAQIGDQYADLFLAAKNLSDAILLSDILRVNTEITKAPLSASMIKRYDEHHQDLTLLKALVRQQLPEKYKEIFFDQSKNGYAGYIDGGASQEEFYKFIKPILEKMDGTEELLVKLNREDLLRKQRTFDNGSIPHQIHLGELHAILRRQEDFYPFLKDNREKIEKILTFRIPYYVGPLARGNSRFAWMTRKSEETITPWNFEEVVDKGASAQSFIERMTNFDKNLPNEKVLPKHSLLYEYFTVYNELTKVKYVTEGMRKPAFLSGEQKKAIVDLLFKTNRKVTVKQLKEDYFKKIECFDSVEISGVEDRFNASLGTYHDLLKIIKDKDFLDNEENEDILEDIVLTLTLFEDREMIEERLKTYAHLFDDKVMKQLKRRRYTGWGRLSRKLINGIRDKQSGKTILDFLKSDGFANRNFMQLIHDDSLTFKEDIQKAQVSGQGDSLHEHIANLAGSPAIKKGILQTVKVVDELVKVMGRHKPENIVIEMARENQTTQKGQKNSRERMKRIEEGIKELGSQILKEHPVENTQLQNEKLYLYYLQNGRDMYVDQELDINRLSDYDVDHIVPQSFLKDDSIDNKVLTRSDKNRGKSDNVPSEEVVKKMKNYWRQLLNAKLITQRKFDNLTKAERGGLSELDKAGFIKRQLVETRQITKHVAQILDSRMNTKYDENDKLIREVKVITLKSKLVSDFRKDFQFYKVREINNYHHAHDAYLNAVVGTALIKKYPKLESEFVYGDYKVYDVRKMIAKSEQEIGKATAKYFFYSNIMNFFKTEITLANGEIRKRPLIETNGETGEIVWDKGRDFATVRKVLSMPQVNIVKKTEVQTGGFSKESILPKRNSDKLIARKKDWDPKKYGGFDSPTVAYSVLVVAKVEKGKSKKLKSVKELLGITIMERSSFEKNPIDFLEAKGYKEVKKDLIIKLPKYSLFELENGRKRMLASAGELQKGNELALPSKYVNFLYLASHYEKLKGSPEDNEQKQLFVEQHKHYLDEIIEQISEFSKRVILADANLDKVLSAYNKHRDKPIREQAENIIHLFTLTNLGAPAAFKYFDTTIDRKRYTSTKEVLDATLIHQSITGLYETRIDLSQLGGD

B1: RNA (sgRNA) (structured_RNA)
RNA: GGUUGGACAUGCUCGACAUUCGUUUUAGAGCUAGAAAUAGCAAGUUAAAAUAAGGCUAGUCCGUUAUCAACUUGAAAAAGUGGCACCGAGUCGGUGCUUUUUU
Kd: 2210 nM
